Reference: publication PMC3418443

Biological target: IL-1 receptors on the surface of HIG-82 synoviocytes (rabbit (endogenous in HIG-82))
Assay: flow cytometry on cells

Chain of IL-1β (P01584 117-269): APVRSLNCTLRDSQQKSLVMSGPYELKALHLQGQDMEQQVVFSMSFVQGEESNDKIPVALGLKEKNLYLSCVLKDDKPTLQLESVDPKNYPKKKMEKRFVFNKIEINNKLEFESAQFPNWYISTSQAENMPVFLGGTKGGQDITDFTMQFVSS

Question: “IL-1β (from UniProt P01584 117-269) (ligand)” was tested. Which % cells with bound IL-1Ra-particles after pre-block with IL-1β did it give?
Answer: 2.8%
